The target in assay [1] is ShAb01 (shark VNAR - human IgG1 Fc chimera) (nurse shark (Ginglymostoma cirratum)). Briefly: BLI. The following applies: both partners purified.
Assay [2] deals with ShAb02 (shark VNAR - human IgG1 Fc chimera) (nurse shark (Ginglymostoma cirratum)). As to the kind of experiment: BLI. The following applies: both partners purified.

B1: SARS-CoV-1 RBD (domain or fragment)
chain: not shown
Regarding B1, the binding result was “binds” in assay [1] and “no binding” in assay [2].

(Values after PMC9896449 (Nature Communications, 2023).)
